Measured values reported in ChEMBL document CHEMBL1133799, “A disubstituted NAD+ analogue is a nanomolar inhibitor of trypanosomal glyceraldehyde-3-phosphate dehydrogenase” (Bioorg Med Chem Lett, 2001).

Columns and labels:
[1] = test system: COc1cccc(C(=O)N[C@@H]2[C@H](O)[C@@H](CO)O[C@H]2n2cnc3c(NCc4cccc5ccccc45)ncnc32)c1
Description: Binding affinity for NAD- in human glyceraldehyde-3-phosphate dehydrogenase (GAPDH)

Chain of Glyceraldehyde-3-phosphate dehydrogenase (Homo sapiens), P04406 (P04406 whole entry): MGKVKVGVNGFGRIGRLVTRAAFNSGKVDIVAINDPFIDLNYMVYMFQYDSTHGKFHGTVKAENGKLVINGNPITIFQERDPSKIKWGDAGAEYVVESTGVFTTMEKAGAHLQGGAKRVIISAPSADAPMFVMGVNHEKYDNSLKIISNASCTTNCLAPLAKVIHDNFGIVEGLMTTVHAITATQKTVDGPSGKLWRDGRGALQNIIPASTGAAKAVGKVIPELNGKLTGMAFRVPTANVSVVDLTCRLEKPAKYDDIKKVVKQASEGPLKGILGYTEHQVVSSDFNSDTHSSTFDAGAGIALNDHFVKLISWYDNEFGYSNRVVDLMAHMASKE
Description for Trypanosoma: Binding affinity for NAD- in trypanosomal glyceraldehyde-3-phosphate dehydrogenase (GAPDH)

| Km (Trypanosoma) [µM] | Compound | Km [1] [µM] |
| --- | --- | --- |
|  | Glyceraldehyde-3-phosphate dehydrogenase (Homo sapiens), P04406 | 0.04 |
| 0.45 | COc1cccc(C(=O)N[C@@H]2[C@H](O)[C@@H](CO)O[C@H]2n2cnc3c(NCc4cccc5ccccc45)ncnc32)c1 |  |
